This data set deals with the molecule itself. The data set can be described thus: crystal structure; OXA-10 crystals (hanging drop, 4 °C, 20–23% PEG 3350, 0.2 M magnesium formate) soaked about 2 min with IPM; 1.89 Å, P212121, two chains in the asymmetric unit; dimer interface analysed with PISA.

B1: OXA-10 class D β-lactamase (enzyme)
chain: GSITENTSWNKEFSAEAVNGVFVLCKSSSKSCATNDLARASKEYLPASTFKIPNAIIGLETGVIKNEHQVFKWDGKPRAMKQWERDLTLRGAIQVSAVPVFQQIAREVGEVRMQKYLKKFSYGNQNISGGIDKFWLEGQLRISAVNQVEFLESLYLNKLSASKENQLIVKEALVTEAAPEYLVHSKTGFSGVGTESNPGVAWWVGWVEKETEVYFFAFNMDIDNESKLPLRKSIPTKIMESEGIIGG
modifications: carboxylated lysine 70 (KCX70); S67 OG covalently bound to the ring-opened carbapenem (IPM or ETP, acyl-enzyme)
notes: Crystals were soaked with imipenem (6SKP) or ertapenem (6SKR); two chains (A, B) in the asymmetric unit; also called OXA-10_IPM; OXA-10_ETP
For B1, the binding result is reported as “binds”.

Values taken from article PMC7459404, “Structural insights into the enhanced carbapenemase efficiency of OXA‐655 compared to OXA‐10” (FEBS Open Bio, 2020).
